# Measurements: patent US20200308228A1 (KING ABDULAZIZ UNIVERSITY, published 2020)
# Entries after “also recorded” stand apart in the source; their conditions may differ. Where no end group is shown, it is not given here. [ ]: non-standard residue; d: D form. The star is where a group is joined. FITC = O=C1OC2(c3ccc(O)cc3Oc3cc(O)ccc32)c2ccc(NC(=S)*)cc21; hI = homoisoleucine, (2S)-2-amino-4-methylhexanoic acid; Chg = N[C@H](C(=O)O)C1CCCCC1; Ahx = NCCCCCC(=O)O
# B1: NS4A peptide of SEQ ID NO: 4 (KK-[…]-KK, comprising the native NS4A21-33 of SEQ ID NO: 2) (peptide)
# peptide: KKGSVVIVGRIVLSGKK
# notes: Synthetic peptide; the KK at each end is not part of NS4A
# B2: NS3 of SEQ ID NO: 3 (NS3 domain of Hepatitis C virus genotype 4a fused to the T7 tag at the N-terminus and 6-His tag at the C-terminus) (protein)
# chain: MASMTGGQQMGAPITAYAQQTRGLFSTIVTSLTGRDTNENCGEVQVLSTATQSFLGTAVNGVMWTVYHGAGSKTISGPKGPVNQMYTNVDQDLVGWPSPPGVKSLTPCTCGASDLYLVTRHADVVPVRRRGDTRGALLSPRPISTLKGSSGGPLLCPMGHAAGLFRAAVCTRGVAKAVDFVPVESLETTMRSGSHHHHHH
# B3: isothiocyanate-labeled NS4A peptide of SEQ ID NO: 25 (FITC-NS4A) (peptide)
# peptide: {FITC}-[Ahx]KKGSVVIVGRIVLSGKK
# notes: also called fluorescein isothiocyanate-NS4A
# Tests used:
# [1] = biological target: T1, NS3 of SEQ ID NO: 3 (NS3 domain of Hepatitis C virus genotype 4a fused to the T7 tag at the N-terminus and … (Hepatitis C virus (genotype 4a))); assay: differential static light scattering (DSLS), NS3:peptide 1:2, 2 h at room temperature
# T1 construct: also called HCV NS3 genotype 4a
# T1 chain: B2 chain
# [2] = biological target: T1, NS3 of SEQ ID NO: 3 (NS3 domain of …); assay: differential static light scattering (DSLS)
# [3] = biological target: T1, NS3 of SEQ ID NO: 3 (NS3 domain of …); assay: competition fluorescence anisotropy against 0.1 µM labelled NS4A peptide with 1.8 µM NS3
# [4] = biological target: T2, Pep-15 of SEQ ID NO: 20 (KKGSx[…])
# T2 chain: KKGSGVIVGRIVLSGKK
# [5] = biological target: T1, NS3 of SEQ ID NO: 3 (NS3 domain of …); assay: fluorescence anisotropy, 0.1 µM labelled peptide titrated with NS3
binder,measurement,setting,value
B1,ΔTagg,[1],2.83 ° C.
KKGS[Chg]VIVGRIVLSGKK [Pep-15 of SEQ ID NO: 20 (KKGSx[…])],Tagg shift,[2],3.9 ° C.
same,Kd,[3],0.07 µM
KKGS[hI]VIVGRIVLSGKK [Pep-14 of SEQ ID NO: 19 (KKGSh[…])],binding result,[2],binds
KKGSWVIVGRIVLSGKK [Pep-12 of SEQ ID NO: 17 (KKGSWVIVGRIVLSGKK)],binding result,[2],binds
KKGSFVIVGRIVLSGKK [Pep-11 of SEQ ID NO: 16 (KKGSFVIVGRIVLSGKK)],binding result,[2],binds
KKGSAVIVGRIVLSGKK [Pep-13 of SEQ ID NO: 18 (KKGSAVIVGRIVLSGKK)],binding result,[2],binds
B2,"protease activity (cleavage of 5FAM-substrate of SEQ ID NO: 22, fluorescence at 520 nm)",[4],"maintained 69.7% of the enzyme activity during the first 60 minutes; also recorded: After 60 minutes, it was observed that the activity of the enzyme completely disappeared"
B3,Kd,[5],0.169 µM
